Results: patent US20190263934A1 (published 2019)

Target: T1, Ab3 WT recombinant Fc fragment (UniProt P01857-1 104-330 = IgG part, limits assumed)
T1 construct: domain: Fc fragment; Ab3 is an Fc fragment
Experiment: Biacore SPR, pH 6.0
Method: With the biotin CAPture kit, the CAPture reagent was captured on the CAP chip surface to a binding RU of >2,000 RU, followed by 0.1 μg mL⁻¹ FcRn in the appropriate channels for 24 s at 30 uL min⁻¹ to a final binding RU of ˜2 RU. The running buffer for the FcRn binding kinetics experiments was PBS with 0.05% Surfactant P-20 (PBS-P+, GE Healthcare) at pH 6.0 or 7.4. A concentration series of a 4-fold serial dilution from 1000 nM antibody was performed in quadruplicate for each variant, including a 0 nM control. Kinetic measurements were obtained for association and dissociation times of 180 and 300 sec, respectively at a flow rate of 10 μL min⁻¹. The C1 and CAP sensor chips were regenerated with 10 mM sodium tetraborate, 1 M NaCl pH 8.5 (GE Healthcare) for 30 sec at 50 μL min⁻¹ or 6 M guanidine hydrochloride, 250 mM sodium hydroxide (GE Healthcare) for 120 s at 50 uL min¹, respectively, followed by an additional 60-90 sec stabilization step in PBS-P+pH 6.0. […]
Kinetic parameters for the concentration series at pH 6.0 were fit to a bivalent model using the Biacore T200 Evaluation Software due to avidity effects. […] The apparent binding affinity was calculated from the first on and off-rates from the bivalent model. The residual binding at pH 7.4 was measured using 1000 nM of each antibody in triplicate at the same time for response comparison.

B1: mouse FcRn (receptor)
chain: SETRPPLMYHLTAVSNPSTGLPSFWATGWLGPQQYLTYNSLRQEADPCGAWMWENQVSWYWEKETTDLKSKEQLFLEALKTLEKILNGTYTLQGLLGCELASDNSSVPTAVFALNGEEFMKFNPRIGNWTGEWPETEIVANLWMKQPDAARKESEFLLNSCPERLLGHLERGRRNLEWKEPPSMRLKARPGNSGSSVLTCAAFSFYPPELKFRFLRNGLASGSGNCSTGPNGDGSFHAWSLLEVKRGDEHHYQCQVEHEGLAQPLTVDLDSSARSS
b2m: IQKTPQIQVYSRHPPENGKPNILNCYVTQFHPPHIEIQMLKNGKKIPKVEMSDMSFSKDWSFYILAHTEFTPTETDTYACRVKHASMAEPKTVYWDRDM
modifications: biotinylated
notes: only 'biotinylated ... mouse FcRn' is told; also called mFcRn
Kd: 61 nM
